Data on 2 molecules can be found in PMC4943861 (ACS chemical biology, 2015).

The target of the experiment is activation loop-phosphorylated ERK2 (Homo sapiens, UniProt P28482). The experiment in a line: In vitro activity assay against activation loop-phosphorylated ERK2. The experiment is classed as biochemical. Particulars: read-out: IC50 against ERK2, triplicate.
Chain of activation loop-phosphorylated ERK2 (P28482 whole entry): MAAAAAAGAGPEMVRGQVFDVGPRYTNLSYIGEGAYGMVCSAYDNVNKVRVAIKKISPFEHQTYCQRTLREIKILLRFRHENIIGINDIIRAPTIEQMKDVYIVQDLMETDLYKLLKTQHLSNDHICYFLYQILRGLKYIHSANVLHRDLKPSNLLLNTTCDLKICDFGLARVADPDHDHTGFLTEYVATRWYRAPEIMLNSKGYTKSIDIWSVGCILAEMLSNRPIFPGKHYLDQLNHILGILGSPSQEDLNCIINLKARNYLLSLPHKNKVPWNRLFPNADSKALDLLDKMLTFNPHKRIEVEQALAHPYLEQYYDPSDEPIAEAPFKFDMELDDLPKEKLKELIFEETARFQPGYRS

B1: SNAPtag-4: monovalent conjugate of 4 to SNAPtag (protein)
chain: GPGSDKDCEMKRTTLDSPLGKLELSGCEQGLHEIIFLGKGTSAADAVEVPAPAAVLGGPEPLMQATAWLNAYFHQPEAIEEFPVPALHHPVFQQESFTRQVLWKLLKVVKFGEVISYSHLAALAGNPAATAAVKTALSGNPVPILIPCHRVVQGDLDVGGYEGGLAVKEWLLAHEGHRLGKR
modifications: SNAPtag is engineered
As to B1, the IC50 was found to be 3900 nM.

B2: SNAP(pE59)-4: bivalent inhibitor of activation loop-phosphorylated ERK2: SNAP(pE59) labeled with 4 (protein)
chain: GPGSDKDCEMKRTTLDSPLGKLELSGCEQGLHEIIFLGKGTSAADAVEVPAPAAVLGGPEPLMQATAWLNAYFHQPEAIEEFPVPALHHPVFQQESFTRQVLWKLLKVVKFGEVISYSHLAALAGNPAATAAVKTALSGNPVPILIPCHRVVQGDLDVGGYEGGLAVKEWLLAHEGHRLGKRDLGKKLLEAARAGQDDEVRILMANGADVNALDEDGLTPLHLAAQLGHLEIVEVLLKYGADVNAEDNFGITPLHLAAIRGHLEIVEVLLKHGADVNAQDKFGKTAFDISIDNGNEDLAEILQKLN
For B2, the IC50 was determined as 0.8 nM.
